Among the data in paper PMC10675845 are koff values, retold here.

Experiment in all cases: single-cell, single-molecule pull-down
One assay has as its target GFP::CDC-42 (C. elegans) (UniProt Q05062).
In assay [1] the target is GFP::CDC-42(S71A) (C. elegans) (UniProt Q05062).
Assay [2] has as its target GFP::CDC-42(S71E) (C. elegans) (UniProt Q05062).

The term koff denotes the rate constant with which the complex falls apart. A lower koff goes with slow dissociation. As for “HaloTag::aPKC (from UniProt Q19266 1-597) (enzyme)”, the koff with GFP::CDC-42 (C. elegans) was 0.057 s⁻¹; in assay [1], 0.057 s⁻¹; in assay [2], 0.099 s⁻¹.
